From publication PMC12959773 (Protein & Cell, 2025)

Key:
[1] = molecular target: the molecule itself; assay: cryo-EM structure; apo state; SLC7A13 and SLC3A1 co-expressed in Expi293 cells, complex purified by affinity purification and SEC; overall resolution 2.64 Å
[2] = substrate: N[C@@H](CSSC[C@H](N)C(=O)O)C(=O)O; assay: cells, lysate or membranes; format: cell-based, Homo sapiens; conditions: cellular transport (Vmax given per cell)
[3] = substrate: N[C@@H](CSSC[C@H](N)C(=O)O)C(=O)O; assay: cells, lysate or membranes; conditions: cellular transport (Vmax given per cell)

Row | Protein | Km [3] | other results
1 | SLC3A1 (natural protein, human, five glycosylation sites in the extracellular domain, SLC3A1 (rBAT), human; heavy chain subunit: small N-terminal cytoplasmic region, a single TM and a large extracellular domain; Two copies stand in the solved hetero-tetramer; also called rBAT; heavy chain of the SLC7A13-SLC3A1 cystine transporter) AEDKSKRDSIEMSMKGCQTNNGFVHNEDILEQTPDPGSSTDNLKHSTRGILGSQEPDFKGVQPYAGMPKEVLFQFSGQARYRIPREILFWLTVASVLVLIAATIAIIALSPKCLDWWQEGPMYQIYPRSFKDSNKDGNGDLKGIQDKLDYITALNIKTVWITSFYKSSLKDFRYGVEDFREVDPIFGTMEDFENLVAAIHDKGLKLIIDFIPNHTSDKHIWFQLSRTRTGKYTDYYIWHDCTHENGKTIPPNNWLSVYGNSSWHFDEVRNQCYFHQFMKEQPDLNFRNPDVQEEIKEILRFWLTKGVDGFSLDAVKFLLEAKHLRDEIQVNKTQIPDTVTQYSELYHDFTTTQVGMHDIVRSFRQTMDQYSTEPGRYRFMGTEAYAESIDRTVMYYGLPFIQEADFPFNNYLSMLDTVSGNSVYEVITSWMENMPEGKWPNWMIGGPDSSRLTSRLGNQYVNVMNMLLFTLPGTPITYYGEEIGMGNIVAANLNESYDINTLRSKSPMQWDNSSNAGFSEASNTWLPTNSDYHTVNVDVQKTQPRSALKLYQDLSLLHANELLLNRGWFCHLRNDSHYVVYTRELDGIDRIFIVVLNFGESTLLNLHNMISGLPAKMRIRLSTNSADKGSKVDTSGIFLDKGEGLIFEHNTKNLLHRQTAFRDRCFVSNRACYSSVLNILYTSC |  | stoichiometry N [1]: 2
2 | SLC7A13-SLC3A1 complex (Homo sapiens) (protein, heterodimeric light/heavy chain transporter, dimer of heterodimers; ectopically expressed in HEK293T / HEK293 cells (Expi293 for cryo-EM); with Amino acid transporter heavy chain SLC3A1) MDRGEKIQLKRVFGYWWGTSFLLINIIGAGIFVSPKGVLAYSCMNVGVSLCVWAGCAILAMTSTLCSAEISISFPCSGAQYYFLKRYFGSTVAFLNLWTSLFLGSGVVAGQALLLAEYSIQPFFPSCSVPKLPKKCLALAMLWIVGILTSRGVKEVTWLQIASSVLKVSILSFISLTGVVFLIRGKKENVERFQNAFDAELPDISHLIQAIFQGYFAYSGGACFTLIAGELKKPRTTIPKCIFTALPLVTVVYLLVNISYLTVLTPREILSSDAVAITWADRAFPSLAWIMPFAISTSLFSNLLISIFKSSRPIYLASQEGQLPLLFNTLNSHSSPFTAVLLLVTLGSLAIILTSLIDLINYIFFTGSLWSILLMIGILRRRYQEPNLSIPYKVFLSFPLATIVIDVGLVVIPLVKSPNVHYVYVLLLVLSGLLFYIPLIHFKIRLAWFEKMTCYLQLLFNICLPDVSEE |  | Km [2]: 126.5 ± 33.25 µmol/L
3 | SLC7A9-SLC3A1 complex (Homo sapiens) (protein) MGDTGLRKRREDEKSIQSQEPKTTSLQKELGLISGISIIVGTIIGSGIFVSPKSVLSNTEAVGPCLIIWAACGVLATLGALCFAELGTMITKSGGEYPYLMEAYGPIPAYLFSWASLIVIKPTSFAIICLSFSEYVCAPFYVGCKPPQIVVKCLAAAAILFISTVNSLSVRLGSYVQNIFTAAKLVIVAIIIISGLVLLAQGNTKNFDNSFEGAQLSVGAISLAFYNGLWAYDGWNQLNYITEELRNPYRNLPLAIIIGIPLVTACYILMNVSYFTVMTATELLQSQAVAVTFGDRVLYPASWIVPLFVAFSTIGAANGTCFTAGRLIYVAGREGHMLKVLSYISVRRLTPAPAIIFYGIIATIYIIPGDINSLVNYFSFAAWLFYGLTILGLIVMRFTRKELERPIKVPVVIPVLMTLISVFLVLAPIISKPTWEYLYCVLFILSGLLFYFLFVHYKFGWAQKISKPITMHLQMLMEVVPPEEDPE | 276.9 ± 107.6 µmol/L | 
4 | SLC7A11-SLC3A2 complex (Homo sapiens) (protein) MVRKPVVSTISKGGYLQGNVNGRLPSLGNKEPPGQEKVQLKRKVTLLRGVSIIIGTIIGAGIFISPKGVLQNTGSVGMSLTIWTVCGVLSLFGALSYAELGTTIKKSGGHYTYILEVFGPLPAFVRVWVELLIIRPAATAVISLAFGRYILEPFFIQCEIPELAIKLITAVGITVVMVLNSMSVSWSARIQIFLTFCKLTAILIIIVPGVMQLIKGQTQNFKDAFSGRDSSITRLPLAFYYGMYAYAGWFYLNFVTEEVENPEKTIPLAICISMAIVTIGYVLTNVAYFTTINAEELLLSNAVAVTFSERLLGNFSLAVPIFVALSCFGSMNGGVFAVSRLFYVASREGHLPEILSMIHVRKHTPLPAVIVLHPLTMIMLFSGDLDSLLNFLSFARWLFIGLAVAGLIYLRYKCPDMHRPFKVPLFIPALFSFTCLFMVALSLYSDPFSTGIGFVITLTGVPAYYLFIIWDKKPRWFRIMSEKITRTLQIILEVVPEEDKL | 67.57 ± 21.95 µmol/L | 
